Experimental data: patent US20070022497A1, “Trans-2-enoyl-coa reductase gene of euglena gracilis” (BASF Plant Science GmbH, priority 2004, published 2007)

T1: trans-2-enoyl-CoA reductase (TER) (Euglena gracilis, UniProt Q5EU90)
T1 construct: One kilogram of Euglena gracilis strain Z cells grown under aerobic conditions for one week was used as starting material; endogenous in cells; host or cells: Euglena gracilis strain Z, aerobically grown; enzyme purified by chromatography (crude extract to Superdex 200)
T1 sequence (Q5EU90 137-539 limits assumed): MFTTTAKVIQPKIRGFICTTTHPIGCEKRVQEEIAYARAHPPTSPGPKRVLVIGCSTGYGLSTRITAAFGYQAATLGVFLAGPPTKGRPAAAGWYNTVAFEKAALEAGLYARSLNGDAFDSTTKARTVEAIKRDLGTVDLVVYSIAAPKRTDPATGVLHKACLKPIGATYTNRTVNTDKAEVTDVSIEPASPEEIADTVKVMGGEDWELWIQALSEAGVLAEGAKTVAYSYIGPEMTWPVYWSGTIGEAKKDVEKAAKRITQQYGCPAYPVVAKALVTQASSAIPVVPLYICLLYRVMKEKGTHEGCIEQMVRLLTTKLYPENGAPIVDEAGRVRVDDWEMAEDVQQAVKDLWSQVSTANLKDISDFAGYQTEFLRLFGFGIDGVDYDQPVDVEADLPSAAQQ


Tests used:
[1] = target: T1, trans-2-enoyl-CoA reductase (TER); assay: trans-2-enoyl-CoA reductase enzyme activity assay (decrease of absorbance at 340 nm with Crotonyl-CoA and NADH); assay type: biochemical; conditions: His-Tag protein from ter2-pET28 in E. coli BL21 (DE3), purified via Ni-NTA agarose
Experimental: Enzyme activity was measured as described by Inui, H. et al. (1984) Eur. J. Biochem. 142: 121-126 with the following modifications. The assay mixture contained 100 mM potassiumphosphate buffer pH 6,2; 0,75 mM Crotonyl-CoA (Sigma); 0,4 mM NADH and 2 μM FAD and enzyme. The assay mixture without substrate was preincubated for 10 min at 30° C. The reaction was also performed at 30° C. and started with the addition of substrate. The activity was determined by the decrease of absorbance at 340 nm. The final assay volume was 1 ml (Ultrospec 2000 Spectrophotometer, Amersham Biosciences) or 200 μl (GENios microplate reader, Tecan Instruments, Maennedorf, Switzerland).

Arabidopsis thaliana = assay: Total seed lipid content of transgenic Arabidopsis plants over-expressing the TER gene (gas chromatography of fatty acids); assay type: in vivo; conditions: for Total seed lipids, % fatty acids: mean of two extractions, empty vector controls 28.3 ± 0.4
Experimental: Using floral dip essentially as described by Clough and Bent, 1998, plants are transformed with Agrobacterium tumefaciens C58C1 harboring the plasmid pSUN300-USP-TER-OCS respectively. Entire plants (inflorescence and rosette) are submerged for 20-30 sec in the infiltration media consisting of 5% sucrose, 0.02% Silwet L-77 (Osi Specialties, Danbury, Conn.) and re-suspended transformed A. tumefasciens cells. Plants are then transferred to a growth chamber with a photoperiod of 16 h of light at 21° C. and 8 h of dark at 18° C. (70% humidity) or a similarly air-conditioned greenhouse. The T1 seeds are collected from mature plants. Subsequently transformed plants were identified on selection media by growing T1 seeds on MS-agar plates supplemented with kanamycin (50 μg/ml).
Plant lipids were extracted from plant material as described by Cahoon et al. (1999, Proc. Natl. Acad. Sci. USA 96, 22:12935-12940) and Browse et al. (1986, Anal, Bio-chemistry 442:141-145). Qualitative and quantitative lipid or fatty acid analysis is described in Christie, William W., Advances in Lipid Methodology. Ayr/Scotland :Oily Press.—(Oily Press Lipid Library; Christie, William W., Gas Chromatography and Lipids. A Practical Guide—Ayr, Scotland :Oily Press, 1989 Repr. 1992.—IX,307).
The total lipid content of dry T2 generation seeds from Arabidopsis thaliana plants over-expressing SEQ ID NO: 1, SEQ ID NO: 4 or SEQ ID NO: 6 will be increased compared to the empty vector Arabidopsis thaliana control plants not expressing SEQ ID NO: 1, SEQ ID NO: 4 or SEQ ID NO: 6. As an example the T2 seed lipid content determined by conventional gas chromatography as mg fatty acids per mg dry seeds of the plants overexpressing SEQ ID NO: 4 is given in table 4. Each value is the mean of two separate extractions of the seed of the given line. The control value is the mean of the seeds of 4 empty vector control plants grown simultaneously, each extracted and measured also in duplicate.

Molecule | Specific activity of purified ter2-protein [1] [nmol/mg/min] | increase in seed storage lipids compared to the controls (Arabidopsis thaliana; independent T2 lines, seed specific promoter, relative to empty pSun300-USP vector controls (FIG. 9)) | Total seed lipids, % fatty acids (Arabidopsis thaliana; transgenic line 7, dry T2 seeds) [%] | Total seed lipids, % fatty acids (Arabidopsis thaliana; transgenic line 10, dry T2 seeds) [%] | Total seed lipids, % fatty acids (Arabidopsis thaliana; transgenic line 22, dry T2 seeds) [%]
ter2-protein: His-tagged truncated TER protein (from aa 136, 45 kDa) expressed in E. coli (protein, listed as Euglena gracilis, His tag, His-tagged truncated TER protein (from aa 136, 45 kDa) expressed in E. coli) MFTTTAKVIQPKIRGFICTTTHPIGCEKRVQEEIAYARAHPPTSPGPKRVLVIGCSTGYGLSTRITAAFGYQAATLGVFLAGPPTKGRPAAAGWYNTVAFEKAALEAGLYARSLNGDAFDSTTKARTVEAIKRDLGTVDLVVYSIAAPKRTDPATGVLHKACLKPIGATYTNRTVNTDKAEVTDVSIEPASPEEIADTVKVMGGEDWELWIQALSEAGVLAEGAKTVAYSYIGPEMTWPVYWSGTIGEAKKDVEKAAKRITQQYGCPAYPVVAKALVTQASSAIPVVPLYICLLYRVMKEKGTHEGCIEQMVRLLTTKLYPENGAPIVDEAGRVRVDDWEMAEDVQQAVKDLWSQVSTANLKDISDFAGYQTEFLRLFGFGIDGVDYDQPVDVEADLPSAAQQ | 1510 |  |  |  | 
SEQ ID NO: 4: shortened Ter gene ORF; protein SEQ ID NO: 5 with 28 amino acid N-terminal stretch predicted to give mitochondrial targeting (nucleic acid, listed as Euglena gracilis, CDS (1)..(1329)) DNA: ATGGGCCGCCGCGGGGCCGCAGTGGGCGGCGCCGCTCGTGGCCGCGGCCTCCTCCGCACTGGCGCTGTGGTGGTGAACATCGCCACCGCGGTCACCCACCTGGCCCCCCCGATGGCGATGTTCACCACCACAGCGAAGGTCATCCAGCCCAAGATTCGTGGCTTCATCTGCACGACCACCCACCCGATCGGCTGTGAGAAGCGGGTCCAGGAGGAGATCGCGTACGCCCGTGCCCACCCGCCCACCAGCCCTGGCCCGAAGAGGGTGCTGGTCATCGGCTGCAGTACCGGCTACGGGCTCTCCACCCGCATCACCGCTGCCTTCGGCTACCAGGCCGCCACGCTGGGCGTGTTCCTGGCGGGCCCCCCGACGAAGGGCCGCCCCGCCGCGGCGGGCTGGTACAACACCGTGGCGTTCGAGAAGGCCGCCCTGGAGGCCGGGCTGTACGCCCGGAGCCTTAATGGCGACGCCTTCGACTCCACAACGAAGGCGCGGACGGTCGAGGCGATCAAGCGGGACCTCGGCACGGTGGACCTCGTGGTGTACAGCATCGCCGCCCCGAAGCGGACGGACCCTGCCACCGGCGTCCTCCACAAGGCCTGCCTGAAGCCCATCGGCGCCACGTACACCAACCGCACTGTGAACACCGACAAGGCGGAGGTGACCGACGTCAGCATTGAGCCGGCCTCCCCCGAAGAGATCGCGGACACGGTGAAGGTGATGGGCGGGGAGGACTGGGAGCTCTGGATCCAGGCGCTGTCGGAGGCCGGCGTGCTGGCGGAGGGGGCCAAGACGGTGGCGTACTCCTACATCGGCCCCGAGATGACGTGGCCTGTCTACTGGTCCGGCACCATCGGGGAGGCCAAGAAGGACGTGGAGAAGGCTGCCAAGCGCATCACGCAGCAGTACGGCTGCCCGGCGTACCCGGTGGTGGCCAAGGCCTTGGTCACCCAGGCCAGCTCCGCCATCCCGGTGGTGCCGCTCTACATCTGCCTGCTGTACCGCGTTATGAAGGAGAAGGGCACCCACGAGGGCTGCATCGAGCAGATGGTGCGGCTGCTCACCACGAAGCTGTACCCCGAGAACGGGGCCCCCATCGTCGATGAGGCCGGACGTGTGCGGGTGGATGACTGGGAGATGGCGGAGGATGTGCAGCAGGCTGTTAAGGACCTCTGGAGCCAGGTGAGCACTGCCAACCTCAAGGACATCTCCGACTTCGCTGGGTATCAAACTGAGTTCCTGCGGCTGTTCGGGTTCGGCATTGACGGCGTGGACTACGACCAGCCCGTGGACGTGGAGGCGGACCTCCCCAGTGCTGCCCAGCAGTAG |  | at least 10% | 35.5 ± 3.2 | 32.4 ± 1.1 | 31.4 ± 0.9
